Measurements: patent US20250163167A1 (SYNTHEKINE, published 2025)

T1: human IL-10 receptor (hIL-10R alpha and beta chains) on HEK-Blue IL-10 reporter cells (human, UniProt Q13651 22-578; Q08334 20-325)
T1 sequence 1: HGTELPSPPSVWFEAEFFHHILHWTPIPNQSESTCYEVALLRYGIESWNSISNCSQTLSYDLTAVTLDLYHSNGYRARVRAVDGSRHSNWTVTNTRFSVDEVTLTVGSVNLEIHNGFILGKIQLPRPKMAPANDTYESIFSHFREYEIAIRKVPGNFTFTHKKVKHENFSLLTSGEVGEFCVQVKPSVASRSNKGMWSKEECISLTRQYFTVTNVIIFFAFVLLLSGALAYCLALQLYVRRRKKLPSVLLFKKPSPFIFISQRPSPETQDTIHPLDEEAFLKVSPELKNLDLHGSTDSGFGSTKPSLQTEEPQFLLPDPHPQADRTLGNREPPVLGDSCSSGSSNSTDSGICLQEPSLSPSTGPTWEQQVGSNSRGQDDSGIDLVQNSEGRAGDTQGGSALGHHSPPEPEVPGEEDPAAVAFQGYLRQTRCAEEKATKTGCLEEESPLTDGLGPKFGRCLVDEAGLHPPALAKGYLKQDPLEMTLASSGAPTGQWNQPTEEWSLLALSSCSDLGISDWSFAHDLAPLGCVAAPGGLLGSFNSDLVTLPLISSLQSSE
T1 sequence 2: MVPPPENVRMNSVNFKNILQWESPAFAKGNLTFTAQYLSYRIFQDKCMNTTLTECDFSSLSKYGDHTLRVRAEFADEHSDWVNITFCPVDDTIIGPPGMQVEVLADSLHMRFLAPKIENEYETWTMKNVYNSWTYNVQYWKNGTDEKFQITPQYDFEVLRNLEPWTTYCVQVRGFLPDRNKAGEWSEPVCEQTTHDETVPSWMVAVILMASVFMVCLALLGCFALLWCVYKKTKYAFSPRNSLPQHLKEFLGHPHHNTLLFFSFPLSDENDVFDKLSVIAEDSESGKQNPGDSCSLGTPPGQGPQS


target: T1, human IL-10 receptor (hIL-10R alpha and …); experiment: cell-based or functional assay

Binder	Abs 630 (25 nM)	Abs 630 (100 nM)
IL10R binding molecule of SEQ ID NO: 279 (bispecific antibody) QVQLQESGGGSVQAGGSLRLSCAVSGYAYSTYCMGWFRQAPGKEREGVAAIDSGGSTSYADSVKGRFTISKDNAKNTLYLRMNSLKPEDTAMYYCAAVPPPPDGGSCLFLGPEIKVSKADFRYWGQGTQVTVSSGGGSQVQLQESGGGSVQAGGSLRLSCAASRYTYNSYCMGWFRQAPGKEREGVATIDSDGMTRYADSVKGRFTISKDNAKNTLYLQMNSLKPEDTAMYYCAADADCTIAAMTTNPLGQGTQVTVSSASHHHHHH	0.49 Abs 630	0.39 Abs 630
IL10R binding molecule of SEQ ID NO: 269 (bispecific antibody) QVQLQESGGGSVQAGGSLRLSCAASRFTYSSYCMGWFRQAPGKEREGVASIDSDGSTSYTDSVKGRFTISKDNAKNTLYLQMNSLKPEDTAMYYCALDLMSTVVPGFCGFLLSAGMDYWGKGTQVTVSSGGGSQVQLQESGGGSVQTGGSLRLSCAASGYTYLRGCMGWFRQAPGKEREGVAVMDVVGDRRSYIDSVKGRFTISRDNAANSVYLQMDNLKPEDTAMYYCTAGPNCVGWRSGLDYWGQGTQVTVSSASHHHHHH	0.46 Abs 630	0.37 Abs 630
IL10R binding molecule of SEQ ID NO: 257 (bispecific antibody) QVQLQESGGGSVQAGGSLRLSCAASRYLYSIDYMAWFRQSPGKEREPVAVIYTASGATFYPDSVKGRFTISQDNAKMTVYLQMNSLKSEDTAMYYCAAVRKTDSYLFDAQSFTYWGQGTQVTVSSGGGSQVQLQESGGGSVQAGGSLRLSCAASGYTYSSYCMGWFRQAPGKEREGVAHIDSDGSTSYADSVKGRFTISKDNAKNTLYLQMNSLKPEDTAMYYCAADPIPGPGYCDGGPNKYWGQGTQVTVSSASHHHHHH	0.45 Abs 630	0.36 Abs 630
IL10R binding molecule of SEQ ID NO: 278 (bispecific antibody) QVQLQESGGGSVQAGGSLRLSCAVSGYAYSTYCMGWFRQAPGKEREGVAAIDSGGSTSYADSVKGRFTISKDNAKNTLYLRMNSLKPEDTAMYYCAAVPPPPDGGSCLFLGPEIKVSKADFRYWGQGTQVTVSSGGGSQVQLQESGGGSVQAGGSLRLSCAASGYTYSSYCMGWFRQAPGKEREGVAHIDSDGSTSYADSVKGRFTISKDNAKNTLYLQMNSLKPEDTAMYYCAADPIPGPGYCDGGPNKYWGQGTQVTVSSASHHHHHH	1.61 Abs 630	1.18 Abs 630
IL10R binding molecule of SEQ ID NO: 276 (bispecific antibody) QVQLQESGGGSVQAGGSLRLSCAASGYTYSMYCMGWFRQAPGKEREGVAQINSDGSTSYADSVKGRFTISKDNAKNTLYLQMNSLKPEDTAMYYCAADSRVYGGSWYERLCGPYTYEYNYWGQGTQVTVSSGGGSQVQLQESGGGSVQTGGSLRLSCAASGYTYLRGCMGWFRQAPGKEREGVAVMDVVGDRRSYIDSVKGRFTISRDNAANSVYLQMDNLKPEDTAMYYCTAGPNCVGWRSGLDYWGQGTQVTVSSASHHHHHH	0.46 Abs 630	0.36 Abs 630
IL10R binding molecule of SEQ ID NO: 273 (bispecific antibody) QVQLQESGGGSVQAGGSLRLSCAASGYTYSMYCMGWFRQAPGKEREGVAQINSDGSTSYADSVKGRFTISKDNAKNTLYLQMNSLKPEDTAMYYCAADSRVYGGSWYERLCGPYTYEYNYWGQGTQVTVSSGGGSQVQLQESGGGSVQAGGSLRLSCTVSRYTASVNYMGWFRQAPGKEREGVATIFTGAGTTYYANSVKGRFTISRDNAKNTAYLQMNSLKPEDTAIYYCAVDFRGGLLYRPAYEYTYRGQGTQVTVSSASHHHHHH	0.52 Abs 630	0.41 Abs 630
IL10R binding molecule of SEQ ID NO: 274 (bispecific antibody) QVQLQESGGGSVQAGGSLRLSCAASGYTYSMYCMGWFRQAPGKEREGVAQINSDGSTSYADSVKGRFTISKDNAKNTLYLQMNSLKPEDTAMYYCAADSRVYGGSWYERLCGPYTYEYNYWGQGTQVTVSSGGGSQVQLQESGGGSVEAGGSLRLSCAASGYTHSSYCMGWFRQAPGKEREGVAAIDVDGSTTYADSVKGRFTISKDNAKNTLYLQMNSLKPEDTGMYYCAAEFADCSSNYFLPPGAVRYWGQGTQVTVSSASHHHHHH	0.46 Abs 630	0.37 Abs 630
IL10R binding molecule of SEQ ID NO: 268 (bispecific antibody) QVQLQESGGGSVQAGGSLRLSCAASRFTYSSYCMGWFRQAPGKEREGVASIDSDGSTSYTDSVKGRFTISKDNAKNTLYLQMNSLKPEDTAMYYCALDLMSTVVPGFCGFLLSAGMDYWGKGTQVTVSSGGGSQVQLQESGGGSVQAGGSLRLSCAASGYSYSSYCMGWFRQAPGKEREGVATIDSDGMTRYADSVKGRFTISKDNAKNTLYLQMNSLKPEDTAMYYCAAPLYDCDSGAVGRNPPYWGQGTQVTVSSASHHHHHH	0.53 Abs 630	0.41 Abs 630
IL10R binding molecule of SEQ ID NO: 270 (bispecific antibody) QVQLQESGGGSVQAGGSLRLSCAASGYTYSMYCMGWFRQAPGKEREGVAQINSDGSTSYADSVKGRFTISKDNAKNTLYLQMNSLKPEDTAMYYCAADSRVYGGSWYERLCGPYTYEYNYWGQGTQVTVSSGGGSQVQLQESGGGSVQAGGSLRLSCAASGYTYSSGCMGWFRQAPGKEREAVAAINSDGSTSYADSVKGRFTISKDNAKNTLYLQMNSLKPEDTAMYYCAAEPYCSGGYPRWSVAEFGYWGQGTQVTVSSASHHHHHH	1.41 Abs 630	0.73 Abs 630
IL10R binding molecule of SEQ ID NO: 272 (bispecific antibody) QVQLQESGGGSVQAGGSLRLSCAASGYTYSMYCMGWFRQAPGKEREGVAQINSDGSTSYADSVKGRFTISKDNAKNTLYLQMNSLKPEDTAMYYCAADSRVYGGSWYERLCGPYTYEYNYWGQGTQVTVSSGGGSQVQLQESGGGSVQAGGSLRLSCAASRYTYNSYCMGWFRQAPGKEREGVATIDSDGMTRYADSVKGRFTISKDNAKNTLYLQMNSLKPEDTAMYYCAADADCTIAAMTTNPLGQGTQVTVSSASHHHHHH	0.47 Abs 630	0.38 Abs 630
IL10R binding molecule of SEQ ID NO: 256 (bispecific antibody) QVQLQESGGGSVQAGGSLRLSCAASRYLYSIDYMAWFRQSPGKEREPVAVIYTASGATFYPDSVKGRFTISQDNAKMTVYLQMNSLKSEDTAMYYCAAVRKTDSYLFDAQSFTYWGQGTQVTVSSGGGSQVQLQESGGGSVQAGGSLRLSCAASGYTYSSGCMGWFRQAPGKEREAVAAINSDGSTSYADSVKGRFTISKDNAKNTLYLQMNSLKPEDTAMYYCAAEPYCSGGYPRWSVAEFGYWGQGTQVTVSSASHHHHHH	0.49 Abs 630	0.39 Abs 630
IL10R binding molecule of SEQ ID NO: 271 (bispecific antibody) QVQLQESGGGSVQAGGSLRLSCAASGYTYSMYCMGWFRQAPGKEREGVAQINSDGSTSYADSVKGRFTISKDNAKNTLYLQMNSLKPEDTAMYYCAADSRVYGGSWYERLCGPYTYEYNYWGQGTQVTVSSGGGSQVQLQESGGGSVQAGGSLRLSCAASGYTYSSYCMGWFRQAPGKEREGVAHIDSDGSTSYADSVKGRFTISKDNAKNTLYLQMNSLKPEDTAMYYCAADPIPGPGYCDGGPNKYWGQGTQVTVSSASHHHHHH	1.93 Abs 630	1.65 Abs 630
IL10R binding molecule of SEQ ID NO: 277 (bispecific antibody) QVQLQESGGGSVQAGGSLRLSCAVSGYAYSTYCMGWFRQAPGKEREGVAAIDSGGSTSYADSVKGRFTISKDNAKNTLYLRMNSLKPEDTAMYYCAAVPPPPDGGSCLFLGPEIKVSKADFRYWGQGTQVTVSSGGGSQVQLQESGGGSVQAGGSLRLSCAASGYTYSSGCMGWFRQAPGKEREAVAAINSDGSTSYADSVKGRFTISKDNAKNTLYLQMNSLKPEDTAMYYCAAEPYCSGGYPRWSVAEFGYWGQGTQVTVSSASHHHHHH	1.19 Abs 630	1 Abs 630
IL10R binding molecule of SEQ ID NO: 275 (bispecific antibody) QVQLQESGGGSVQAGGSLRLSCAASGYTYSMYCMGWFRQAPGKEREGVAQINSDGSTSYADSVKGRFTISKDNAKNTLYLQMNSLKPEDTAMYYCAADSRVYGGSWYERLCGPYTYEYNYWGQGTQVTVSSGGGSQVQLQESGGGSVQAGGSLRLSCAASGYSYSSYCMGWFRQAPGKEREGVATIDSDGMTRYADSVKGRFTISKDNAKNTLYLQMNSLKPEDTAMYYCAAPLYDCDSGAVGRNPPYWGQGTQVTVSSASHHHHHH	0.51 Abs 630	0.36 Abs 630
IL10R binding molecule of SEQ ID NO: 280 (bispecific antibody) QVQLQESGGGSVQAGGSLRLSCAVSGYAYSTYCMGWFRQAPGKEREGVAAIDSGGSTSYADSVKGRFTISKDNAKNTLYLRMNSLKPEDTAMYYCAAVPPPPDGGSCLFLGPEIKVSKADFRYWGQGTQVTVSSGGGSQVQLQESGGGSVQAGGSLRLSCTVSRYTASVNYMGWFRQAPGKEREGVATIFTGAGTTYYANSVKGRFTISRDNAKNTAYLQMNSLKPEDTAIYYCAVDFRGGLLYRPAYEYTYRGQGTQVTVSSASHHHHHH	0.49 Abs 630	0.37 Abs 630
